Results as given in patent US20250368686A1 (OKINAWA INSTITUTE OF SCIENCE AND TECHNOLOGY SCHOOL, published 2025).

B1: SNAPf-DOR: rat DOR with the SNAPf tag protein at its N-terminus, expressed in the PM of CHO-K1 cells (Example 2) (receptor, not shown: small tags and cut ends)
chain: SGGGSGGSGGGSGGSGGGSGGMEPVPSARAELQFSLLANVSDTFPSAFPSASANASGSPGARSASSLALAIAITALYSAVCAVGLLGNVLVMFGIVRYTKLKTATNIYIFNLALADALATSTLPFQSAKYLMETWPFGELLCKAVLSIDYYNMFTSIFTLTMMSVDRYIAVCHPVKALDFRTPAKAKLINICIWVLASGVGVPIMVMAVTQPRDGAVVCTLQFPSPSWYWDTVTKICVFLFAFVVPILIITVCYGLMLLRLRSVRLLSGSKEKDRSLRRITRMVLVVVGAFVVCWAPIHIFVIVWTLVDINRRDPLVVAALHLCIALGYANSSLNPVLYAFLDENFKRCFRQLCRAPCGGQEPGSLRRPRQATARERVTACTPSDGPGGGAAA
modifications: SNAPf tag covalently labelled with SNAP-Surface 549 or SNAP-CF660R
notes: whole, on cells; Homodimer partner is the same molecule labelled in the other colour; also called WT DOR
B2: κ-type opioid receptor (KOR), rat, wild type, fluorescently tagged, expressed in the PM of CHO-K1 cells (Example 1) (receptor, UniProt P34975 1-380, looked up)
chain: MESPIQIFRGEPGPTCAPSACLLPNSSSWFPNWAESDSNGSVGSEDQQLEPAHISPAIPVIITAVYSVVFVVGLVGNSLVMFVIIRYTKMKTATNIYIFNLALADALVTTTMPFQSAVYLMNSWPFGDVLCKIVISIDYYNMFTSIFTLTMMSVDRYIAVCHPVKALDFRTPLKAKIINICIWLLASSVGISAIVLGGTKVREDVDVIECSLQFPDDEYSWWDLFMKICVFVFAFVIPVLIIIVCYTLMILRLKSVRLLSGSREKDRNLRRITKLVLVVVAVFIICWTPIHIFILVEALGSTSHSTAVLSSYYFCIALGYTNSSLNPVLYAFLDENFKRCFRDFCFPIKMRMERQSTNRVRNTVQDPASMRDVGGMNKPV
notes: whole, on cells; also called WT-KOR; κ-OPR; not shown: fluorescent tag protein
B3: SNAPf-MOR: rat MOR with the SNAPf tag protein at its N-terminus, expressed in the PM of CHO-K1 cells (Example 2) (receptor, not shown: small tags and cut ends)
chain: SGGGSGGSGGGSGGSGGGSGGMDSSTGPGNTSDCSDPLAQASCSPAPGSWLNLSHVDGNQSDPCGLNRTGLGGNDSLCPQTGSPSMVTAITIMALYSIVCVVGLFGNFLVMYVIVRYTKMKTATNIYIFNLALADALATSTLPFQSVNYLMGTWPFGTILCKIVISIDYYNMFTSIFTLCTMSVDRYIAVCHPVKALDFRTPRNAKIVNVCNWILSSAIGLPVMFMATTKYRQGSIDCTLTFSHPTWYWENLLKICVFIFAFIMPVLIITVCYGLMILRLKSVRMLSGSKEKDRNLRRITRMVLVVVAVFIVCWTPIHIYVIIKALITIPETTFQTVSWHFCIALGYTNSCLNPVLYAFLDENFKRCFREFCIPTSSTIEQQNSTRVRQNTREHPSTANTVDRTNHQLENLEAETAPLP
modifications: SNAPf tag covalently labelled with SNAP-Surface 549 or SNAP-CF660R
notes: whole, on cells; Homodimer partner is the same molecule labelled in the other colour; also called WT MOR
B4: SNAPf-KOR: rat KOR with the SNAPf tag protein at its N-terminus, expressed in the PM of CHO-K1 cells (Example 2) (receptor, not shown: small tags and cut ends)
chain: SGGGSGGSGGGSGGSGGGSGGMESPIQIFRGEPGPTCAPSACLLPNSSSWFPNWAESDSNGSVGSEDQQLEPAHISPAIPVIITAVYSVVFVVGLVGNSLVMFVIIRYTKMKTATNIYIFNLALADALVTTTMPFQSAVYLMNSWPFGDVLCKIVISIDYYNMFTSIFTLTMMSVDRYIAVCHPVKALDFRTPLKAKIINICIWLLASSVGISAIVLGGTKVREDVDVIECSLQFPDDEYSWWDLFMKICVFVFAFVIPVLIIIVCYTLMILRLKSVRLLSGSREKDRNLRRITKLVLVVVAVFIICWTPIHIFILVEALGSTSHSTAVLSSYYFCIALGYTNSSLNPVLYAFLDENFKRCFRDFCFPIKMRMERQSTNRVRNTVQDPASMRDVGGMNKPV
modifications: SNAPf tag covalently labelled with SNAP-Surface 549 or SNAP-CF660R
notes: whole, on cells; Homodimer partner is the same molecule labelled in the other colour; also called WT KOR

Tests used:
[1] = molecular target: the molecule itself; assay: calculated from the equilibrium constants; after SNC-80
Description: (§1) The ratios of molecules that exist as dimers vs. monomers (D/M ratios) in terms of the number of protomers were calculated from KD at various expression levels (number density of molecules) (FIG. 2-4e, f). […] When they dissociate into monomers, they will again form dimers, but the rate of dimer formation depends on the number density of the monomers (and thus the expression levels).
(§2) The ratios of the numbers of protomers that exist as dimers vs. monomers at different expression levels in the PM were calculated from the three dynamic equilibrium constants and listed.

[2] = molecular target: the molecule itself; assay: inverse of the homodimer lifetime; no agonist
[3] = molecular target: the molecule itself; assay: calculated from KD (FIG. 2-4f)
Description: Accordingly, by subtracting the signal intensity after the quencher addition from that before the addition, we evaluated the percentages of the OPR molecules remaining in the PM (FIG. 2-s9; FIG. 2-5a). The time courses of the OPR numbers remaining in the PM after time 0 were examined in both the presence and absence of 0.2 μM agonists and ˜3 μM FAM-Xpep-TATs in the cytoplasm (FIG. 2-5b).

[4] = molecular target: the molecule itself; assay: inverse of the homodimer lifetime; after SNC-80
[5] = molecular target: the molecule itself; assay: colocalization durations; SNC-80 and FAM-Dpep-TAT present
[6] = molecular target: the molecule itself; assay: calculated from the equilibrium constants; no agonist
Description: as §1, §2

[7] = molecular target: the molecule itself; assay: cell-based or functional assay
[8] = molecular target: T1, µ-type opioid receptor (MOR), rat, wild type, fluorescently tagged, expressed in the PM of CHO-K1 cells … (rat, UniProt P33535 1-398); assay: colocalisation index, two-colour single-molecule imaging in CHO-K1 cells
T1 construct: whole, on cells; also called WT-MOR; MOR-Halo; not shown: Halo tag

[9] = molecular target: the molecule itself; assay: calculated from the equilibrium constants; after DAMGO
Description: as §1, §2

[10] = molecular target: the molecule itself; assay: inverse of the homodimer lifetime; after DAMGO
[11] = molecular target: the molecule itself; assay: calculated from the equilibrium constants; after U-50488
Description: as §1, §2

[12] = molecular target: the molecule itself; assay: inverse of the homodimer lifetime; after U-50488
[13] = molecular target: T1, µ-type opioid receptor (MOR), rat, wild …; assay: dependence of the DOR-MOR colocalisation index on the concentration of the soluble peptide (competition on cells)

Row | Binder | koff [2] [s⁻¹] | % of copies existing as dimers at ˜1 copy/µm^2, before agonist [3] [%] | D/M ratio (protomers in dimers vs monomers) at 0.3 copies/µm^2 [6] | D/M ratio (protomers in dimers vs monomers) at 1 copies/µm^2 [6] | D/M ratio (protomers in dimers vs monomers) at 3 copies/µm^2 [6] | D/M ratio (protomers in dimers vs monomers) at 10 copies/µm^2 [6] | D/M ratio (protomers in dimers vs monomers) at 30 copies/µm^2 [6] | Ca^2+ (FMax-Fb)/Fb; + Agonist + FAM-pep-TAT [7] | further results
1 | B1 | 8 | 17 | 0.07 | 0.21 | 0.5 | 1.17 | 2.3 | 2.84 (FMax-Fb)/Fb | D/M ratio (protomers in dimers vs monomers) at 0.3 copies/µm^2 [1]: 0.15; D/M ratio (protomers in dimers vs monomers) at 1 copies/µm^2 [1]: 0.4; D/M ratio (protomers in dimers vs monomers) at 3 copies/µm^2 [1]: 0.89; D/M ratio (protomers in dimers vs monomers) at 10 copies/µm^2 [1]: 1.92; D/M ratio (protomers in dimers vs monomers) at 30 copies/µm^2 [1]: 3.62; koff [4]: 3.62 s⁻¹; fold of homodimer lifetime against wild-type DOR in the absence of the agonist [5]: ~1.5 fold
2 | B2 |  |  |  |  |  |  |  |  | binding result [8]: no binding
3 | B3 | 8.47 | 18 | 0.08 | 0.22 | 0.54 | 1.23 | 2.41 | 2.78 (FMax-Fb)/Fb | D/M ratio (protomers in dimers vs monomers) at 0.3 copies/µm^2 [9]: 0.06; D/M ratio (protomers in dimers vs monomers) at 1 copies/µm^2 [9]: 0.17; D/M ratio (protomers in dimers vs monomers) at 3 copies/µm^2 [9]: 0.43; D/M ratio (protomers in dimers vs monomers) at 10 copies/µm^2 [9]: 1.02; D/M ratio (protomers in dimers vs monomers) at 30 copies/µm^2 [9]: 2.03; koff [10]: 5.35 s⁻¹
4 | B4 | 6.71 | 33 | 0.19 | 0.5 | 1.08 | 2.28 | 4.26 | 2.46 (FMax-Fb)/Fb | D/M ratio (protomers in dimers vs monomers) at 0.3 copies/µm^2 [11]: 0.07; D/M ratio (protomers in dimers vs monomers) at 1 copies/µm^2 [11]: 0.22; D/M ratio (protomers in dimers vs monomers) at 3 copies/µm^2 [11]: 0.52; D/M ratio (protomers in dimers vs monomers) at 10 copies/µm^2 [11]: 1.2; D/M ratio (protomers in dimers vs monomers) at 30 copies/µm^2 [11]: 2.35; koff [12]: 17.9 s⁻¹
5 | SDTFPSAFPSASANASGSPGARS (also called DpepDM(20-42); DpepDM) [Dpep(20-42)DM, soluble peptide with the N-terminal domain sequence aa20-42 of DOR] |  |  |  |  |  |  |  |  | Kd [13]: < 100 nM
